Laboratory results as given in paper PMC9352680, “A comprehensive thermodynamic model for RNA binding by the Saccharomyces cerevisiae Pumilio protein PUF4”.

T1: PUF4 RNA-binding domain (Saccharomyces cerevisiae, UniProt P25339 537-888)
T1 sequence: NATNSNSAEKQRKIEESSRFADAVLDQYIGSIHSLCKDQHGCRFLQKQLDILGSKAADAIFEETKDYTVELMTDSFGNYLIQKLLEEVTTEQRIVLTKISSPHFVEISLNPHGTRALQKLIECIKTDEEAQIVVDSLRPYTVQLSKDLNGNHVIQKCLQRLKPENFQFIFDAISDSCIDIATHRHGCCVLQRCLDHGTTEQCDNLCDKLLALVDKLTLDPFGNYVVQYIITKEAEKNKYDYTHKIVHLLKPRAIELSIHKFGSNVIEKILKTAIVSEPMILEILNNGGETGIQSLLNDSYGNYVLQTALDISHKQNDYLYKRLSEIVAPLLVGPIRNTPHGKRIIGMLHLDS

B1: Ic_S2_P4E.1_K4.1_C4.1_H4.1_A4.1_[T5G]_[A6T]_[T7G]_F4.1_[T8C]_[A9T]_T4.1 (ssRNA)
RNA: UUUGAUUAAUAUGAUAUCGUUCUUUCUUGUAGUGCUUUCUUUCUCGAUAUCAUAUUAAUCUUU
B2: Ic_S2_P4E.1_K4.1_C4.1_H4.1_A4.1_[T5G]_[A6T]_[T7A]_F4.1_[T8G]_[A9T]_T4.1 (ssRNA)
RNA: UUUGAUUAAUAUGAUAUCGUUCUUUCUUGUAGUAGUUUCUUUCUCGAUAUCAUAUUAAUCUUU
B3: Ic_S2_P4E.1_K4.1_C4.1_H4.1_A4.1_[T5G]_[A6C]_[T7C]_F4.1_[T8A]_[A9T]_T4.1 (ssRNA)
RNA: UUUGAUUAAUAUGAUAUCGUUCUUUCUUGUAGCCAUUUCUUUCUCGAUAUCAUAUUAAUCUUU
B4: Ic_S2_P4E.1_K4.1_C4.1_H4.1_A4.1_[T5G]_[A6T]_[T7C]_F4.1_[T8G]_[A9C]_T4.1 (ssRNA)
RNA: UUUGAUUAAUAUGAUAUCGUUCUUUCUUGUAGUCGCUUCUUUCUCGAUAUCAUAUUAAUCUUU
B5: Ic_S2_P4E.1_K4.1_C4.1_H4.1_A4.1_[T5G]_[A6T]_F4.1_[T8C]_[A9G]_T4.1 (ssRNA)
RNA: UUUGAUUAAUAUGAUAUCGUUCUUUCUUGUAGUUCGUUCUUUCUCGAUAUCAUAUUAAUCUUU
B6: Ic_S2_P4E.1_K4.1_C4.1_H4.1_A4.1_[T5G]_[A6C]_[T7A]_F4.1_[A9T]_T4.1 (ssRNA)
RNA: UUUGAUUAAUAUGAUAUCGUUCUUUCUUGUAGCAUUUUCUUUCUCGAUAUCAUAUUAAUCUUU
B7: Ic_S2_P4E.1_K4.1_C4.1_H4.1_A4.1_[T5G]_[A6T]_[T7A]_F4.1_[T8A]_T4.1 (ssRNA)
RNA: UUUGAUUAAUAUGAUAUCGUUCUUUCUUGUAGUAAAUUCUUUCUCGAUAUCAUAUUAAUCUUU
B8: Ic_S2_P4E.1_K4.1_C4.1_H4.1_A4.1_[T5G]_[A6C]_[T7C]_F4.1_[A9G]_T4.1 (ssRNA)
RNA: UUUGAUUAAUAUGAUAUCGUUCUUUCUUGUAGCCUGUUCUUUCUCGAUAUCAUAUUAAUCUUU
B9: Ic_S2_P4E.1_K4.1_C4.1_H4.1_A4.1_[T5G]_[A6T]_[T7C]_F4.1_[A9C]_T4.1 (ssRNA)
RNA: UUUGAUUAAUAUGAUAUCGUUCUUUCUUGUAGUCUCUUCUUUCUCGAUAUCAUAUUAAUCUUU
B10: Ic_S2_P4E.1_K4.1_C4.1_H4.1_A4.1_[T5G]_[A6T]_[T7C]_F4.1_[T8C]_[A9T]_T4.1 (ssRNA)
RNA: UUUGAUUAAUAUGAUAUCGUUCUUUCUUGUAGUCCUUUCUUUCUCGAUAUCAUAUUAAUCUUU
B11: Ic_S2_P4E.1_K4.1_C4.1_H4.1_A4.1_[T5G]_[A6T]_[T7C]_F4.1_[T8C]_[A9G]_T4.1 (ssRNA)
RNA: UUUGAUUAAUAUGAUAUCGUUCUUUCUUGUAGUCCGUUCUUUCUCGAUAUCAUAUUAAUCUUU
B12: Ic_S2_P4E.1_K4.1_C4.1_H4.1_A4.1_[T5G]_[A6C]_[T7C]_F4.1_[T8C]_T4.1 (ssRNA)
RNA: UUUGAUUAAUAUGAUAUCGUUCUUUCUUGUAGCCCAUUCUUUCUCGAUAUCAUAUUAAUCUUU
B13: Ic_S2_P4E.1_K4.1_C4.1_H4.1_A4.1_[T5G]_[A6T]_[T7C]_F4.1_[T8G]_[A9T]_T4.1 (ssRNA)
RNA: UUUGAUUAAUAUGAUAUCGUUCUUUCUUGUAGUCGUUUCUUUCUCGAUAUCAUAUUAAUCUUU
B14: Ic_S2_P4E.1_K4.1_C4.1_H4.1_A4.1_[T5G]_[A6T]_[T7A]_F4.1_[A9T]_T4.1 (ssRNA)
RNA: UUUGAUUAAUAUGAUAUCGUUCUUUCUUGUAGUAUUUUCUUUCUCGAUAUCAUAUUAAUCUUU
B15: Ic_S2_P4E.1_K4.1_C4.1_H4.1_A4.1_[T5G]_[A6C]_F4.1_[T8A]_[A9G]_T4.1 (ssRNA)
RNA: UUUGAUUAAUAUGAUAUCGUUCUUUCUUGUAGCUAGUUCUUUCUCGAUAUCAUAUUAAUCUUU
B16: Ic_S2_P4E.1_K4.1_C4.1_H4.1_A4.1_[T5G]_[A6C]_[T7C]_F4.1_[T8A]_[A9C]_T4.1 (ssRNA)
RNA: UUUGAUUAAUAUGAUAUCGUUCUUUCUUGUAGCCACUUCUUUCUCGAUAUCAUAUUAAUCUUU
B17: Ic_S2_P4E.1_K4.1_C4.1_H4.1_A4.1_[T5G]_[A6T]_F4.1_[T8G]_[A9C]_T4.1 (ssRNA)
RNA: UUUGAUUAAUAUGAUAUCGUUCUUUCUUGUAGUUGCUUCUUUCUCGAUAUCAUAUUAAUCUUU
B18: Ic_S2_P4E.1_K4.1_C4.1_H4.1_A4.1_[T5G]_[A6T]_[T7C]_F4.1_T4.1 (ssRNA)
RNA: UUUGAUUAAUAUGAUAUCGUUCUUUCUUGUAGUCUAUUCUUUCUCGAUAUCAUAUUAAUCUUU
B19: Ic_S2_P4E.1_K4.1_C4.1_H4.1_A4.1_[T5G]_[A6C]_F4.1_[A9T]_T4.1 (ssRNA)
RNA: UUUGAUUAAUAUGAUAUCGUUCUUUCUUGUAGCUUUUUCUUUCUCGAUAUCAUAUUAAUCUUU
B20: Ic_S2_P4E.1_K4.1_C4.1_H4.1_A4.1_[T5G]_[A6C]_[T7C]_F4.1_[A9T]_T4.1 (ssRNA)
RNA: UUUGAUUAAUAUGAUAUCGUUCUUUCUUGUAGCCUUUUCUUUCUCGAUAUCAUAUUAAUCUUU
B21: Ic_S2_P4E.1_K4.1_C4.1_H4.1_A4.1_[T5G]_[A6T]_[T7G]_F4.1_[T8C]_[A9G]_T4.1 (ssRNA)
RNA: UUUGAUUAAUAUGAUAUCGUUCUUUCUUGUAGUGCGUUCUUUCUCGAUAUCAUAUUAAUCUUU
B22: Ic_S2_P4E.1_K4.1_C4.1_H4.1_A4.1_[T5G]_[A6C]_[T7A]_F4.1_[A9G]_T4.1 (ssRNA)
RNA: UUUGAUUAAUAUGAUAUCGUUCUUUCUUGUAGCAUGUUCUUUCUCGAUAUCAUAUUAAUCUUU

biological target: T1, PUF4 RNA-binding domain; experiment: Mg; RNA-MaP; 20 mM Na-HEPES pH 7.4, 30 mM KOAc, 0.75 mM MgCl2, 0.1% Tween-20, 5% glycerol, 0.1 mg/mL BSA, 2 mM DTT; 25 C; 0.0125-409.6 nM protein; settings: tags: N-His6-TEV cleaved; C-SNAP kept, Cy3B-labelled; label: tethered on chip by stalled RNA polymerase

Going from B1 to B2, the Kd rises from 478 nM to 984 nM (2.1-fold).

B3 and B4 are within 1.5-fold of each other in Kd: 402 nM for the first, 598 nM for the second.

Compared with B5, B6 is 59-fold lower in Kd: 550 nM for the first, 9.32 nM for the second. The second binds more tightly here.

B7 and B8 are within 1.5-fold of each other in Kd: 407 nM for the first, 300 nM for the second.

B9 and B10 are within 1.5-fold of each other in Kd: 149 nM for the first, 121 nM for the second.

B11 and B12 are within 1.5-fold of each other in Kd: 732 nM for the first, 1090 nM for the second.

Compared with B13, B14 is 11-fold lower in Kd: 288 nM for the first, 26.4 nM for the second. The second binds more tightly here.

First: B15
Second: B16
The Kd of the first is 1.5-fold lower: 846 nM for the first, 1280 nM for the second.

First: B17
Second: B18
The Kd of the first is 130-fold higher: 588 nM for the first, 4.56 nM for the second. The second binds more tightly here.

First: B19
Second: B20
The Kd of the first is 1.6-fold lower: 30.4 nM for the first, 48 nM for the second. The first binds more tightly here.

First: B21
Second: B22
The Kd of the first is 24-fold higher: 651 nM for the first, 27.6 nM for the second. The second binds more tightly here.

For UCUCUUUGCAUGUAUCUCUU (ssRNA) [Ib_S1_P3E.1_K3.1_C3.1_H3.1_[T3C]_A3.1_[A6G]_F3.1_T3.1], the Kd was 535 nM.
